# According to the supplement of paper PMC9112550, “Optimization of the antimicrobial peptide Bac7 by deep mutational scanning” (BMC Biology, 2022):
# Test system: Escherichia coli TOP10
# Assay: shrunken log2 fold change of peptide-encoding DNA abundance (4.5 h post-induction vs induction); higher = less antimicrobial activity (less host growth inhibition)
# Details: time post-induction: 4.5 h; library: site-saturation at positions 5, 18, 19, 20
# 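Also: peptides expressed intracellularly from a pBAD plasmid library in pooled LB shake-flask culture, induced with 0.3% L-arabinose, DNA abundance read by NGS, three biological replicates, DESeq2 with apeglm shrinkage.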
row,Sequence,shrunken log2 fold change
1,RRIRNRPPRLPRPRPRPNMVPRP,-0.385
2,RRIRQRPPRLPRPRPRPVRFPRP,0.728
3,RRIRRRPPRLPRPRPRPVSHPRP,0.218
4,RRIRLRPPRLPRPRPRPWNVPRP,-0.0513
5,RRIRDRPPRLPRPRPRPFKPPRP,0.00312
6,RRIRERPPRLPRPRPRPVVGPRP,-0.106
7,RRIRSRPPRLPRPRPRPATSPRP,0.0483
8,RRIRGRPPRLPRPRPRPIRHPRP,0.0519
9,RRIRRRPPRLPRPRPRPHRLPRP,0.0507
10,RRIRKRPPRLPRPRPRPANSPRP,-0.0423
11,RRIRQRPPRLPRPRPRPRCQPRP,-0.0547
12,RRIRRRPPRLPRPRPRPLQWPRP,0.292
13,RRIRVRPPRLPRPRPRPGDLPRP,-0.211
14,RRIRVRPPRLPRPRPRPIIIPRP,-0.235
15,RRIRLRPPRLPRPRPRPMHSPRP,-0.13
16,RRIRHRPPRLPRPRPRPAPAPRP,0.289
17,RRIRWRPPRLPRPRPRPEHEPRP,0.623
18,RRIRPRPPRLPRPRPRPNPAPRP,0.234
19,RRIRVRPPRLPRPRPRPEDKPRP,-0.00975
20,RRIRARPPRLPRPRPRPVWDPRP,0.312
21,RRIRRRPPRLPRPRPRPYNGPRP,-0.0173
22,RRIRYRPPRLPRPRPRPGRGPRP,0.254
23,RRIRGRPPRLPRPRPRPVIYPRP,0.0164
24,RRIRARPPRLPRPRPRPFQQPRP,0.00604
25,RRIRKRPPRLPRPRPRPIRRPRP,0.0536

row,Sequence,shrunken log2 fold change
1,RRIRCRPPRLPRPRPRPVVCPRP,0.113
2,RRIRRRPPRLPRPRPRPGHMPRP,0.101
3,RRIRFRPPRLPRPRPRPSGKPRP,-0.0093
4,RRIRIRPPRLPRPRPRPKLCPRP,0.0563
5,RRIRSRPPRLPRPRPRPHMMPRP,-0.113
6,RRIRDRPPRLPRPRPRPKMHPRP,0.159
7,RRIRSRPPRLPRPRPRPRFNPRP,-0.153
8,RRIRVRPPRLPRPRPRPVPLPRP,-0.121
9,RRIRIRPPRLPRPRPRPKDMPRP,-0.221
10,RRIRCRPPRLPRPRPRPRHHPRP,-0.088
11,RRIRQRPPRLPRPRPRPHHSPRP,-0.107
12,RRIRIRPPRLPRPRPRPLWHPRP,-0.105
13,RRIRFRPPRLPRPRPRPIVNPRP,0.00221
14,RRIRARPPRLPRPRPRPDHIPRP,-0.126
15,RRIRSRPPRLPRPRPRPLHKPRP,0.104
16,RRIRERPPRLPRPRPRPNFFPRP,-0.0705
17,RRIRVRPPRLPRPRPRPICGPRP,0.0607
18,RRIRQRPPRLPRPRPRPVGRPRP,0.336
19,RRIRRRPPRLPRPRPRPCYFPRP,-0.0239
20,RRIRARPPRLPRPRPRPIHNPRP,-0.0611
21,RRIRDRPPRLPRPRPRPHLCPRP,-0.0584
22,RRIRARPPRLPRPRPRPQPRPRP,0.721
23,RRIRQRPPRLPRPRPRPFCCPRP,-0.114
24,RRIRGRPPRLPRPRPRPEVMPRP,1.41
25,RRIRYRPPRLPRPRPRPLGNPRP,0.0523

row,Sequence,shrunken log2 fold change
1,RRIRDRPPRLPRPRPRPWHDPRP,0.0315
2,RRIRERPPRLPRPRPRPDLCPRP,-0.00931
3,RRIRVRPPRLPRPRPRPCKHPRP,-0.483
4,RRIRKRPPRLPRPRPRPRTTPRP,0.792
5,RRIRERPPRLPRPRPRPSYNPRP,-0.924
6,RRIRIRPPRLPRPRPRPESMPRP,0.0174
7,RRIRRRPPRLPRPRPRPMSQPRP,0.247
8,RRIRLRPPRLPRPRPRPGVGPRP,0.537
9,RRIRSRPPRLPRPRPRPGNIPRP,-0.281
10,RRIRERPPRLPRPRPRPDPDPRP,-0.0294
11,RRIRMRPPRLPRPRPRPWITPRP,-0.00122
12,RRIRHRPPRLPRPRPRPRNGPRP,-0.0288
13,RRIRPRPPRLPRPRPRPTMTPRP,0.0633
14,RRIRLRPPRLPRPRPRPNWSPRP,-0.136
15,RRIRFRPPRLPRPRPRPPTSPRP,0.403
16,RRIRVRPPRLPRPRPRPVDHPRP,-0.464
17,RRIRQRPPRLPRPRPRPCAAPRP,0.339
18,RRIRRRPPRLPRPRPRPKSMPRP,0.0108
19,RRIRDRPPRLPRPRPRPYIVPRP,0.0363
20,RRIRQRPPRLPRPRPRPDCLPRP,-0.793
21,RRIRIRPPRLPRPRPRPYVLPRP,-0.588
22,RRIRFRPPRLPRPRPRPHLWPRP,0.185
23,RRIRNRPPRLPRPRPRPRDSPRP,0.0829
24,RRIRYRPPRLPRPRPRPTRNPRP,-0.404
25,RRIRFRPPRLPRPRPRPTSFPRP,0.0329

row,Sequence,shrunken log2 fold change
1,RRIRVRPPRLPRPRPRPSQEPRP,-0.549
2,RRIRPRPPRLPRPRPRPRWNPRP,0.115
3,RRIRHRPPRLPRPRPRPPFSPRP,-0.166
4,RRIRLRPPRLPRPRPRPEVLPRP,-0.0871
5,RRIRSRPPRLPRPRPRPKDMPRP,-0.123
6,RRIRVRPPRLPRPRPRPRNIPRP,-0.0258
7,RRIRLRPPRLPRPRPRPRQKPRP,0.154
8,RRIRCRPPRLPRPRPRPIQHPRP,-1.21
9,RRIRWRPPRLPRPRPRPIGQPRP,0.00299
10,RRIRCRPPRLPRPRPRPMFEPRP,-0.212
11,RRIRHRPPRLPRPRPRPIYHPRP,-0.0782
12,RRIRGRPPRLPRPRPRPKVDPRP,3.36
13,RRIRCRPPRLPRPRPRPCLHPRP,-0.824
14,RRIRYRPPRLPRPRPRPQRMPRP,-0.74
15,RRIRLRPPRLPRPRPRPKIVPRP,-0.142
16,RRIRHRPPRLPRPRPRPKWGPRP,0.177
17,RRIRGRPPRLPRPRPRPYLAPRP,0.398
18,RRIRIRPPRLPRPRPRPADCPRP,0.035
19,RRIRHRPPRLPRPRPRPFLDPRP,-0.751
20,RRIRHRPPRLPRPRPRPVHFPRP,-0.011
21,RRIRRRPPRLPRPRPRPYTKPRP,-0.284
22,RRIRFRPPRLPRPRPRPLSLPRP,-0.0575
23,RRIRQRPPRLPRPRPRPHLRPRP,-0.0964
24,RRIRARPPRLPRPRPRPHYKPRP,-0.424
25,RRIRARPPRLPRPRPRPWPQPRP,0.403

row,Sequence,shrunken log2 fold change
1,RRIRYRPPRLPRPRPRPPWDPRP,0.128
2,RRIRMRPPRLPRPRPRPYQNPRP,0.0826
3,RRIRNRPPRLPRPRPRPFLAPRP,-0.164
4,RRIRSRPPRLPRPRPRPVKRPRP,0.26
5,RRIRNRPPRLPRPRPRPICPPRP,-0.0189
6,RRIRERPPRLPRPRPRPSHRPRP,-0.0834
7,RRIRFRPPRLPRPRPRPAQKPRP,0.166
8,RRIRPRPPRLPRPRPRPTAMPRP,0.0577
9,RRIRFRPPRLPRPRPRPAAEPRP,0.558
10,RRIRPRPPRLPRPRPRPMPPPRP,0.194
11,RRIRRRPPRLPRPRPRPLYYPRP,-0.259
12,RRIRKRPPRLPRPRPRPPKGPRP,0.333
13,RRIRCRPPRLPRPRPRPNEYPRP,-0.587
14,RRIRNRPPRLPRPRPRPWMGPRP,-0.558
15,RRIRNRPPRLPRPRPRPDTVPRP,-0.0521
16,RRIRLRPPRLPRPRPRPKMSPRP,-0.0245
17,RRIRHRPPRLPRPRPRPEKSPRP,0.0275
18,RRIRPRPPRLPRPRPRPSRIPRP,-0.0841
19,RRIRQRPPRLPRPRPRPWQIPRP,-0.0838
20,RRIRCRPPRLPRPRPRPLDPPRP,-0.122
21,RRIRWRPPRLPRPRPRPITWPRP,0.0636
22,RRIRWRPPRLPRPRPRPMYYPRP,-0.32
23,RRIRHRPPRLPRPRPRPMTMPRP,-0.257
24,RRIRPRPPRLPRPRPRPIVFPRP,-0.293
25,RRIRLRPPRLPRPRPRPLACPRP,-0.454

row,Sequence,shrunken log2 fold change
1,RRIRFRPPRLPRPRPRPWPIPRP,-0.0205
2,RRIRYRPPRLPRPRPRPKSFPRP,-0.0139
3,RRIRLRPPRLPRPRPRPRECPRP,-0.104
4,RRIRSRPPRLPRPRPRPLPFPRP,-0.588
5,RRIRLRPPRLPRPRPRPCGNPRP,0.0862
6,RRIRERPPRLPRPRPRPWIKPRP,-0.924
7,RRIRPRPPRLPRPRPRPRRTPRP,0.507
8,RRIRDRPPRLPRPRPRPKIAPRP,-0.0493
9,RRIRIRPPRLPRPRPRPVKLPRP,-0.0316
10,RRIRYRPPRLPRPRPRPAFKPRP,-0.145
11,RRIRNRPPRLPRPRPRPRLDPRP,0.0403
12,RRIRERPPRLPRPRPRPTRSPRP,-0.196
13,RRIRCRPPRLPRPRPRPKEHPRP,-0.201
14,RRIRHRPPRLPRPRPRPWYCPRP,-0.0324
15,RRIRVRPPRLPRPRPRPAIWPRP,0.0627
16,RRIRQRPPRLPRPRPRPHWAPRP,-0.143
17,RRIRRRPPRLPRPRPRPNFIPRP,-0.481
18,RRIRGRPPRLPRPRPRPPIEPRP,0.196
19,RRIRARPPRLPRPRPRPNKYPRP,-0.449
20,RRIRERPPRLPRPRPRPIMWPRP,-0.268
21,RRIRARPPRLPRPRPRPWWYPRP,-0.172
22,RRIRPRPPRLPRPRPRPIARPRP,-0.0116
23,RRIRCRPPRLPRPRPRPHMKPRP,-1.1
24,RRIRERPPRLPRPRPRPHREPRP,-0.0302
25,RRIRKRPPRLPRPRPRPKWHPRP,0.0114
